Data: the supplement of paper PMC7125110
± gives the standard error. This sample holds only a part of the variants without activity.

B1: glmS ribozyme (parent)
chain: AUAAAAGCGCCAGAACUACAGAAAUGUAGUUGACGAGGAGGAGGUUUAUCGAAUUUUCGGCGGAUGCCUCCAAA

What was measured:
Settings in all cases: with glucosamine-6-phosphate
[1] = variants of: B1; assay: self-cleavage kobs at 40 uM GlcN6P; higher = faster cleavage; RNA array
Outline: (§1)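 Ribozyme variants carrying barcodes were transcribed in situ on sequenced MiSeq chips by E. coli RNA polymerase and tracked at 37 °C with a hybridised Cy3 probe. They were exposed to 40 μM to 10 mM glucosamine-6-phosphate in HEPES/KCl/Mg(OAc)2 buffer. kobs came from exponential decay fits of normalised per-tile medians, and kcat and KM from weighted Michaelis–Menten fits.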

[2] = variants of: B1; assay: self-cleavage kobs at 640 uM GlcN6P; higher = faster cleavage; RNA array
Outline: as §1

[3] = variants of: B1; assay: self-cleavage kobs at 10000 uM GlcN6P; higher = faster cleavage; RNA array
Outline: as §1

[4] = variants of: B1; assay: self-cleavage kobs at 160 uM GlcN6P; higher = faster cleavage; RNA array
Outline: as §1

[5] = variants of: B1; assay: self-cleavage kobs at 2500 uM GlcN6P; higher = faster cleavage; RNA array
Outline: as §1

Variant | self-cleavage kobs at 40 uM GlcN6P [1] [s⁻¹] | self-cleavage kobs at 640 uM GlcN6P [2] [s⁻¹] | self-cleavage kobs at 10000 uM GlcN6P [3] [s⁻¹] | self-cleavage kobs at 160 uM GlcN6P [4] [s⁻¹] | self-cleavage kobs at 2500 uM GlcN6P [5] [s⁻¹]
G43C A52C U54G | < 1e-05 | < 1e-05 | < 1e-05 | – | –
A42U G51C | < 1e-05 | < 1e-05 | – | < 1e-05 | –
G44U A52U G62C | < 1e-05 | – | – | < 1e-05 | < 1e-05
G43C G63U | < 1e-05 | < 1e-05 | – | < 1e-05 | < 1e-05
G44C A52U | < 1e-05 | – | – | – | –
G41C C58A | < 1e-05 | – | < 1e-05 | < 1e-05 | –
G40U A48G G59U | < 1e-05 | – | < 1e-05 | < 1e-05 | < 1e-05
A42G G63A | < 1e-05 | < 1e-05 | < 1e-05 | < 1e-05 | < 1e-05
G41C G44U G66U | < 1e-05 | – | < 1e-05 | – | < 1e-05
A42G G43C | < 1e-05 | < 1e-05 | < 1e-05 | – | –
G44C G51A | < 1e-05 | < 1e-05 | < 1e-05 | < 1e-05 | < 1e-05
G40C G41C G63U | < 1e-05 | – | – | – | –
A42C G60U | < 1e-05 | – | < 1e-05 | – | < 1e-05
G44C G60C | < 1e-05 | < 1e-05 | < 1e-05 | < 1e-05 | –
G44C G51A A53C | < 1e-05 | – | < 1e-05 | – | –
A42U U54C U55C | < 1e-05 | – | 8.78e-05 ± 1.3e-05 | – | 5.79e-05 ± 1.6e-05
A39U A42C U54C U65C | < 1e-05 | < 1e-05 | – | – | < 1e-05
G44C U65C | < 1e-05 | < 1e-05 | < 1e-05 | < 1e-05 | –
G43U C58U | < 1e-05 | < 1e-05 | < 1e-05 | < 1e-05 | –
G43U C58G | < 1e-05 | < 1e-05 | < 1e-05 | < 1e-05 | < 1e-05
G41U G63C C70A | < 1e-05 | – | – | – | –
G40U U56G G62C C67G | < 1e-05 | – | – | – | –

Variant | self-cleavage kobs at 40 uM GlcN6P [1] [s⁻¹] | self-cleavage kobs at 640 uM GlcN6P [2] [s⁻¹] | self-cleavage kobs at 10000 uM GlcN6P [3] [s⁻¹] | self-cleavage kobs at 160 uM GlcN6P [4] [s⁻¹] | self-cleavage kobs at 2500 uM GlcN6P [5] [s⁻¹]
A39U C68U C71U | 0.000103 ± 3e-05 | – | – | – | –
G40U G51A | < 1e-05 | < 1e-05 | < 1e-05 | – | < 1e-05
G41U G60U | < 1e-05 | < 1e-05 | < 1e-05 | < 1e-05 | –
G44C U46A G51A | < 1e-05 | – | – | – | –
A42G G66A | 0.000416 ± 6.5e-05 | 0.00611 ± 0.00079 | 0.0267 ± 0.0068 | 0.000862 ± 0.0002 | 0.00984 ± 0.0018
G41U G60U U69C | < 1e-05 | – | < 1e-05 | – | –
A42U A53G U56C C71U | < 1e-05 | – | – | – | –
A39G C50U C58U | < 1e-05 | – | – | – | –
G44C U45G C58G | < 1e-05 | – | – | – | –
G41C U65G | < 1e-05 | < 1e-05 | – | < 1e-05 | –
G41A G51C | < 1e-05 | < 1e-05 | – | < 1e-05 | –
G41C G43A U46G C68A C70U | < 1e-05 | – | – | – | –
G44A C67U | 0.000707 ± 7e-05 | 0.00449 ± 0.0011 | 0.0388 ± 0.0061 | 0.00265 ± 0.00064 | 0.006 ± 0.0018
G43U G44U | < 1e-05 | < 1e-05 | < 1e-05 | < 1e-05 | < 1e-05
G44A G60A | < 1e-05 | < 1e-05 | < 1e-05 | < 1e-05 | < 1e-05
A39G G63U G66A | < 1e-05 | < 1e-05 | < 1e-05 | – | < 1e-05
G43C A48U C50U C58A C67U | < 1e-05 | < 1e-05 | – | – | –
G41U A48U C68A | < 1e-05 | – | – | – | < 1e-05
G40U G59U U69C C71U | < 1e-05 | – | – | – | < 1e-05
A42G U45A U49C | < 1e-05 | – | – | – | –
G40U G59C G60U C70G | < 1e-05 | – | < 1e-05 | – | –
G44A U47C | < 1e-05 | < 1e-05 | < 1e-05 | < 1e-05 | < 1e-05

Variant | self-cleavage kobs at 40 uM GlcN6P [1] [s⁻¹] | self-cleavage kobs at 640 uM GlcN6P [2] [s⁻¹] | self-cleavage kobs at 10000 uM GlcN6P [3] [s⁻¹] | self-cleavage kobs at 160 uM GlcN6P [4] [s⁻¹] | self-cleavage kobs at 2500 uM GlcN6P [5] [s⁻¹]
G41U C68U C71A | < 1e-05 | – | – | – | –
A42C G51C | < 1e-05 | < 1e-05 | < 1e-05 | < 1e-05 | –
A42C G51U | < 1e-05 | < 1e-05 | < 1e-05 | < 1e-05 | –
G43A G51C U54C C71U | < 1e-05 | < 1e-05 | – | – | < 1e-05
A42U U65C | < 1e-05 | < 1e-05 | < 1e-05 | < 1e-05 | < 1e-05
A42U U65A | < 1e-05 | – | 4.89e-05 ± 1.2e-05 | < 1e-05 | –
G41U G43A | < 1e-05 | < 1e-05 | < 1e-05 | – | < 1e-05
G41C G63C | < 1e-05 | < 1e-05 | < 1e-05 | – | < 1e-05
G41A C61U | < 1e-05 | < 1e-05 | < 1e-05 | < 1e-05 | –
A39U A42G C67U | 0.000231 ± 6.2e-05 | – | 0.0241 ± 0.0085 | 0.000536 ± 0.00015 | 0.00297 ± 0.00075
G40U A64U | < 1e-05 | – | – | < 1e-05 | –
G44C C67U C68U | < 1e-05 | – | – | < 1e-05 | –
G41U G60U A64U | < 1e-05 | – | < 1e-05 | < 1e-05 | –
A42C G62U | < 1e-05 | < 1e-05 | < 1e-05 | – | < 1e-05
G40U U56C G59C | < 1e-05 | – | < 1e-05 | – | –
G44A C70A | < 1e-05 | – | < 1e-05 | < 1e-05 | < 1e-05
A39G C50G C58A | 0.000142 ± 4.6e-05 | – | – | – | –
A42G C61G | < 1e-05 | < 1e-05 | < 1e-05 | < 1e-05 | –
G41U U49A | < 1e-05 | < 1e-05 | < 1e-05 | – | –
G43C | < 1e-05 | < 1e-05 | – | < 1e-05 | < 1e-05
A39U U45A | 0.000759 ± 9.8e-05 | 0.0067 ± 0.0015 | 0.0807 ± 0.02 | 0.00209 ± 0.00053 | 0.0135 ± 0.0033
G43A A64G | < 1e-05 | – | 4.35e-05 ± 1.7e-05 | < 1e-05 | –

Variant | self-cleavage kobs at 40 uM GlcN6P [1] [s⁻¹] | self-cleavage kobs at 640 uM GlcN6P [2] [s⁻¹] | self-cleavage kobs at 10000 uM GlcN6P [3] [s⁻¹] | self-cleavage kobs at 160 uM GlcN6P [4] [s⁻¹] | self-cleavage kobs at 2500 uM GlcN6P [5] [s⁻¹]
A42C C50U U69A | < 1e-05 | – | < 1e-05 | – | –
A42C U49A G63C | < 1e-05 | – | – | – | –
G41A C68G | < 1e-05 | < 1e-05 | < 1e-05 | < 1e-05 | < 1e-05
A42C U49A | < 1e-05 | < 1e-05 | – | < 1e-05 | < 1e-05
A42C U65C | < 1e-05 | < 1e-05 | < 1e-05 | < 1e-05 | < 1e-05
A42C G51A C61U | < 1e-05 | – | < 1e-05 | < 1e-05 | –
G40C G43C | < 1e-05 | – | < 1e-05 | < 1e-05 | < 1e-05
G40C G43A | < 1e-05 | – | < 1e-05 | – | –
G44C C68A | < 1e-05 | < 1e-05 | < 1e-05 | < 1e-05 | < 1e-05
G40C G44A | < 1e-05 | < 1e-05 | – | < 1e-05 | < 1e-05
G43U C50U | < 1e-05 | < 1e-05 | < 1e-05 | < 1e-05 | < 1e-05
G44A C68G | < 1e-05 | < 1e-05 | < 1e-05 | < 1e-05 | < 1e-05
G44U A48U | < 1e-05 | < 1e-05 | – | < 1e-05 | < 1e-05
A42U G60A | < 1e-05 | – | < 1e-05 | < 1e-05 | –
G40C C58G C67U | < 1e-05 | – | – | – | –
A42G U57A G66U | < 1e-05 | – | – | – | –
A42C G44A | < 1e-05 | < 1e-05 | < 1e-05 | < 1e-05 | –
G40C C68U | < 1e-05 | – | 1.72e-05 ± 7.9e-06 | – | –
A42C C68G | < 1e-05 | < 1e-05 | – | < 1e-05 | –
G41C C58U G59C | < 1e-05 | – | – | – | –
G41U C61G | < 1e-05 | < 1e-05 | < 1e-05 | < 1e-05 | < 1e-05
